For two substances, percent reduction in binding against wild-type ICD results are on record in paper PMC3520155.

The target in the assay is HA-tagged full-length pebble (Pbl) (Drosophila). As to the kind of experiment: co-IP.

Turning to “Sema-1a ICD[Δ31–60] (domain or fragment)”, the percent reduction in binding against wild-type ICD amounted to 44%.

As for “Sema-1a ICD[36G/52A] (domain or fragment)”, the percent reduction in binding against wild-type ICD came to 33%.
